Experimental data: article PMC5426754
Where two headings read alike, the source gives them in different places. Each block holds one substance with its values, some of them ahead of it.

Tests used:
[1] = target: Fl-C-ERMAD^516–560 (fluorescently labeled, Cys-Lys516-Leu560) (human); assay: fluorescence polarisation; direct FP; 50 nM fluorescent tracer (Fl-C-ERMAD variants or Fl-NMIIA) titrated with S100 proteins or N-ERMAD; 20 mM HEPES pH 7.5, 150 mM NaCl, 0.1 mM TCEP, 1 mM CaCl2, 0.05% Tween-20; triplicates; quadratic binding equation
[2] = target: S100A4-Δ9 (S100A4 C-terminally truncated by 9 residues) (UniProt P26447); assay: NMR titration; unlabeled C-ERMAD (7.5 mM stock) added gradually to 15N-labeled S100A4-Δ9 dimer (250 μM) up to 2.1:1; 1H-15N HSQC, 700 MHz, 300 K; 20 mM MES pH 6.0, 150 mM NaCl, 10 mM CaCl2, 5 mM TCEP; ten shifting peaks fitted to a quadratic binding equation
[3] = target: S100A4 (metastasin), wild type (UniProt P26447); assay: fluorescence polarisation; competitive FP; 50 nM Fl-NMIIA complexed with 4 μM S100A4 dimer titrated with ezrin constructs; competition binding equation; triplicates
Chain of S100A4 (metastasin), wild type (UniProt P26447) (P26447 whole entry): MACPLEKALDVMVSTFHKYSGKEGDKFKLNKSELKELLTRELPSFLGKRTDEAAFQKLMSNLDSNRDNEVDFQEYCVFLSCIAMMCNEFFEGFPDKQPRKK

[4] = target: S100A4 (metastasin), wild type (UniProt P26447); assay: as above; remark: listed apart in the source

Chain of S100A4 (metastasin), wild type (from UniProt P26447 1-101) (natural protein) (P26447 whole entry): as above
Chain of Ezrin C-ERMAD (Cys-Lys516-Leu586), unlabeled (P15311 other isoform, or with tags, fused parts or gaps): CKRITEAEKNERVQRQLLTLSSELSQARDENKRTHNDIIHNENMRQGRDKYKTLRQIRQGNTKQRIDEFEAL

Kd [1]: 8.4 µM
Substance: S100A4 (metastasin), wild type (from UniProt P26447 1-101) (natural protein)

Kd [2]: 10.8 µM
Substance: Ezrin C-ERMAD (Cys-Lys516-Leu586), unlabeled (from UniProt P15311 516-586) (domain or fragment)

Kd [3]: 27.6 µM
Kd [4]: 28.6 µM
Substance: Ezrin C-ERMAD^516–560 (Cys-Lys516-Leu560), unlabeled (domain or fragment)
